Earlier results, collected in publication PMC11558822, “Myc 9aaTAD activation domain binds to mediator of transcription with superior high affinity” (Molecular Medicine, 2024).

Molecular target: CBP KIX (Homo sapiens) (UniProt Q92793)
Assay: ITC

Chain of CBP KIX (Homo sapiens) (Q92793 584-669): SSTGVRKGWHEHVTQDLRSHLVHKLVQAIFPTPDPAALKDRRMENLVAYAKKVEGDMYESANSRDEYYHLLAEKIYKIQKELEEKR

## MLL 9aaTAD (from UniProt Q03164)
  Kd: 1400 nM
